Measured values reported in patent US20030166163A1.

Experiments:
[1] = biological target: human intermediate affinity IL-2Rβγ on TF-1β cells (human) (UniProt P14784); assay: cell-based or functional assay
[2] = biological target: human IL-2Rαβγ on Kit-225 cells (human) (UniProt P01589); assay: cell-based or functional assay
[3] = biological target: murine high affinity IL-2Rαβγ on CTLL-2 cells (murine) (UniProt P01590); assay: cell-based or functional assay
[4] = biological target: FcγR receptors on U937 cells; assay: cell-based ELISA on U937 cells, detection with FITC-conjugated anti-human IgG Fc F(ab')2

Chain of UniProt P14784 (P14784 27-551, chain 1 of 2): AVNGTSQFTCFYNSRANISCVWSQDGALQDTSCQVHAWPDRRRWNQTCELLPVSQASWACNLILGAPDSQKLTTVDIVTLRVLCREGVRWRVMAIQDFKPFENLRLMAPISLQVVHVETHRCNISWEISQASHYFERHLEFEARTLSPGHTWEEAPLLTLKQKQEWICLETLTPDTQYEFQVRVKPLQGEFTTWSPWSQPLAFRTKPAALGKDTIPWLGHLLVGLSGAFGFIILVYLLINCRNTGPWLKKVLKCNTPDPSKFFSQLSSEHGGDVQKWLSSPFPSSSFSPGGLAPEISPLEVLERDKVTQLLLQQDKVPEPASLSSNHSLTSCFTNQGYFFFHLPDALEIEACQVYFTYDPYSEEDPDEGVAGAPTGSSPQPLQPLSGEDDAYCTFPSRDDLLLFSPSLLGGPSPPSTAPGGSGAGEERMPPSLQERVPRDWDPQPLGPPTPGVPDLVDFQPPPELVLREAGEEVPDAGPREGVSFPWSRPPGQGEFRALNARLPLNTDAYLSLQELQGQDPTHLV
Chain of UniProt P14784 (P31785 23-369, chain 2 of 2, further chain): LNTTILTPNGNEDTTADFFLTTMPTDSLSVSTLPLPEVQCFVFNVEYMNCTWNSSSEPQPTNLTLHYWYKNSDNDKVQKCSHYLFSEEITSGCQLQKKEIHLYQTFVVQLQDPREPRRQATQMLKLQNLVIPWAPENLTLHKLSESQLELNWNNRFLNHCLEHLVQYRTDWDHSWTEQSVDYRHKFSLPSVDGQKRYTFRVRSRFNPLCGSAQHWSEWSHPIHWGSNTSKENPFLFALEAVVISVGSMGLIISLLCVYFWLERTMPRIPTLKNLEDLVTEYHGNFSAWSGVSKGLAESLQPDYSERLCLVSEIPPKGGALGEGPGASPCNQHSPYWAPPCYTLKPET
Chain of UniProt P01590 (P01590 22-268, chain 1 of 3): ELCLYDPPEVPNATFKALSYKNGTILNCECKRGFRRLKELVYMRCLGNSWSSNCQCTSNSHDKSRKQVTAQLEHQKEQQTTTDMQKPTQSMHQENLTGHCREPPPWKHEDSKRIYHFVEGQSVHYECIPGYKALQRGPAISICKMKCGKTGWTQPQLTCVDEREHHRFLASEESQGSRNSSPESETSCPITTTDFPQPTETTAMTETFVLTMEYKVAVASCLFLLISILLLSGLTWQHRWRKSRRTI
Chain of UniProt P01590 (P16297 27-539, chain 2 of 3, further chain): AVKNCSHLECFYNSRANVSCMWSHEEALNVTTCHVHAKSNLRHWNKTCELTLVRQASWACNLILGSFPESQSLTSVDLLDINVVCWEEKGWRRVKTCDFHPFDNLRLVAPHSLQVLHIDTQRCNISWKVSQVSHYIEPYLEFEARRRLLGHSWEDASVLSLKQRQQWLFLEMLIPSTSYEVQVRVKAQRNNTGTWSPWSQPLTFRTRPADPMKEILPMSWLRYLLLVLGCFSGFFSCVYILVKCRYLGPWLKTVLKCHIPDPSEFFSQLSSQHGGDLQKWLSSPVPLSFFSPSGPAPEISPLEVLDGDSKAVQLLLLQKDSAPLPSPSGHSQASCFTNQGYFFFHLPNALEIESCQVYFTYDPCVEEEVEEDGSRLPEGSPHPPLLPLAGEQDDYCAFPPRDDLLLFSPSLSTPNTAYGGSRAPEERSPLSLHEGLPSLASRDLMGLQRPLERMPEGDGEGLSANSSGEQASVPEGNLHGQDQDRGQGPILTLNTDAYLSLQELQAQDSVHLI
Chain of UniProt P01590 (P34902 23-369, chain 3 of 3, further chain): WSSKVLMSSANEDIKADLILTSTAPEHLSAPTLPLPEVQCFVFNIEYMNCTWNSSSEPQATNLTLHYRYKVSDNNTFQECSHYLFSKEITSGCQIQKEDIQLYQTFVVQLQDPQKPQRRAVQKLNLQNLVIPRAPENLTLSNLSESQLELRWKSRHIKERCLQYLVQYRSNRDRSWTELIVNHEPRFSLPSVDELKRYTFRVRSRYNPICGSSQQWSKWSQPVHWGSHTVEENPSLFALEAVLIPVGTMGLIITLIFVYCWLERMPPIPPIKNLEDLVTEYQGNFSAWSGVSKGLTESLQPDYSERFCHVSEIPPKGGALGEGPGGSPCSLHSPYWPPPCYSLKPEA
Chain of UniProt P01589 (P01589 22-272, chain 1 of 3): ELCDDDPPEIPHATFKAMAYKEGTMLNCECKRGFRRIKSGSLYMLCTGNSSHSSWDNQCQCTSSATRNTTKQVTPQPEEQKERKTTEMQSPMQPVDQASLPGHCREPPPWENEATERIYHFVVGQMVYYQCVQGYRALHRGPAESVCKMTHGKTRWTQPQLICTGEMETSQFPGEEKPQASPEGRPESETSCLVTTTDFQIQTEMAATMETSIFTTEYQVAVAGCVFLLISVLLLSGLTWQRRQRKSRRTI
Chain of UniProt P01589 (P14784 27-551, chain 2 of 3, further chain): as the sequence (P14784 27-551, chain 1 of 2) above
Chain of UniProt P01589 (P31785 23-369, chain 3 of 3, further chain): as the sequence (P31785 23-369, chain 2 of 2, further chain) above

Row | ED50 Ratio = ED50 [TF1-β]/ED50 [CTLL-2], cell proliferation [1] | ED50 Ratio TF-1β/Kit-225, cell proliferation [1] | ED50, proliferation of CTLL-2 cells [3] | Substance | further results
1 | 0.11 | 4 | – | huKS-IL2 | fold change of the ED50 ratio (TF-1β/CTLL-2) against free IL-2 [1]: 5 fold
2 | 0.17 | 10.4 | 5 | huKS-ala-IL2 | ED50, proliferation of Kit-225 cells [2]: 0.08; EC50 [4]: 5 µg/mL
3 | 0.45 | – | – | N-Glycanase treated huKS-IL2 | fold increase of the ED50 Ratio (TF-1β/CTLL-2) relative to huKS-IL2 [1]: 2 fold
4 | 2300 | 52000 | 3 | huKS-ala-IL2(N88R) | ED50, proliferation of Kit 225 cells [2]: 0.13; shift in selectivity (ED50 ratio TF-1β/CTLL-2) relative to KS-ala-IL2 [1]: 20000 fold
5 | 0.21 | – | – | N-Glycanase treated 14.18-IL2 | fold increase of the ED50 ratio (TF-1β/CTLL-2) compared to untreated 14.18-IL2 [1]: 3 fold
6 | 0.07 | – | – | 14.18-IL2 | –
